Reference: patent publication EP4242225A1
Where two headings read alike, the source gives them in different places.

B1: hcAb 2.15 (Fc fusion)
heavy: QVQLVESGGGSVQAGGSLKLSCAASGYASWARKCIGWFRQAPGQEREGVAAIFDFDGSTYYSDSVKGRFTISGDNAKNTVSLQMNSLLPKDTAVYYCTVAFGTCDNWYRGRGDYWGQGTQVTVSS
B2: Nb 2.15 (VHH)
VHH: B1 heavy
B3: Nb 1.10 (VHH)
VHH: QVQLVESGGGSVQAGGSLRLSCAASGYTYSTCRKGWYRQAPGKERELVASITADGATYYLDSVKGRLTISQDNAKNTVYLQMNSLKPEDTAVYYCAASVKDFTCTFNSWGQGTQVTVSS
B4: hcAb 1.10 (Fc fusion)
heavy: B3 VHH

How the values were obtained:
Conditions in all cases: remark: other sources report otherwise
[1] = target: RBD-Fc, Wuhan strain (WA1) (SARS-CoV-2; human), P0DTC2
[2] = target: T1, RBD-FH, monomeric RBD (332-534) with a FLAG peptide and an 8xHis-tag at the C-terminus (SARS-CoV-2), P0DTC2
[3] = target: T1, RBD-FH, monomeric RBD (332-534) with a …; remark: listed apart in the source

Binder | % inhibition of RBD binding to hACE2 [1] | Kd [2] | koff [2] | kon [2] | Kd [3] | koff [3] | kon [3]
B1 | > 95% | 80 pM | 0.00012 s⁻¹ | 1.42e+06 M⁻¹ s⁻¹ |  |  | 
B2 |  |  |  |  | 390 pM | 0.000778 s⁻¹ | 2.02e+06 M⁻¹ s⁻¹
B3 |  |  |  |  | 3960 pM | 0.00137 s⁻¹ | 345000 M⁻¹ s⁻¹
B4 | > 95% | 350 pM | 0.000237 s⁻¹ | 679000 M⁻¹ s⁻¹ |  |  | 
